These are literature values, as cited in article PMC3394898.

The series concerns the target NTSR1 (Mus musculus) (UniProt O88319).
Chain of UniProt O88319 (O88319 whole entry): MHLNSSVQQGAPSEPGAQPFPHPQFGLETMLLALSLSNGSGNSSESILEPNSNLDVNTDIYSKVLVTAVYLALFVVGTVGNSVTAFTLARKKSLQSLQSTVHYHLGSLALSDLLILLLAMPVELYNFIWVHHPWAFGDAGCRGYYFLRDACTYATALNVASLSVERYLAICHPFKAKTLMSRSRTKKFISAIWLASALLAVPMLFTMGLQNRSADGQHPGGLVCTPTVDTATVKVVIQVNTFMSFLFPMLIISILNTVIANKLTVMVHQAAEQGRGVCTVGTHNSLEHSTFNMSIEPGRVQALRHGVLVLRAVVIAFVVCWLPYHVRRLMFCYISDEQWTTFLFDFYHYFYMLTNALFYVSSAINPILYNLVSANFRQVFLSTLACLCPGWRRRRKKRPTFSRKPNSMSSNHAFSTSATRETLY

One may read the Kd as a measure of binding affinity in units of concentration. neurotensin (NTS) (from UniProt P30990): the Kd is 5 nM.
